Assays:
[1] = system: TALEN TN8 (FokI ELD-S/KKR-S) (Artificial); test: cell_activity; settings: pair with TN3; maximum in one DMD myoblast line (6.8% in the other); Surveyor; site preceded by 5'T
[2] = system: TALEN TN3 (FokI ELD-S/KKR-S) (Artificial); test: cell_activity; settings: pair with TN8; maximum in one DMD myoblast line (6.8% in the other); Surveyor; site preceded by 5'T

Sequence	activity (% alleles modified) [1]	activity (% alleles modified) [2]
CCTTAGTAACCACAGGT (double strand) [TN8 half-site]	12.7	–
AGCTCCTACTCAGACT (double strand) [TN3 half-site]	–	12.7

— US20150079064
